Results as given in patent publication US9689040B2, “Selective inhibitors of tumor-initiating cells” (Children's Medical Center Corporation, priority 2011, dated 2017).

How the values were obtained:
[1] = test system: BPLER cells; test: Cell viability after drug treatment (CellTiterGlo / Trypan-Blue); format: cell-based, human; conditions: 24 hr; for relative viability of BPLER and HMLER cells: CellTiterGlo (FIG. 14)
[2] = test system: BPLER cells; test: Secondary (cherry-pick) screen with the 4 individual siRNAs of each pool; conditions: for Cherry_Score: secondary cherry-pick screen, 4 individual siRNAs of each pool
[3] = test system: BPLER cells; test: Genome-wide siRNA lethality screen (primary screen), CellTiterGlo viability; format: cell-based, human; conditions: for MAD BPLER / Fold BPLER: siRNA pool against the gene; for MAD BPLER: MAD score of viability in BPLER cells; for Fold BPLER: fold viability in BPLER cells; for Ratio: R, BPLER versus HMLER, primary screen
[4] = test system: HMLER cells; test: as above; format: cell-based, human; conditions: for MAD_HMLER / Fold_HMLER: primary screen, HMLER cells; for MAD_HMLER: MAD score; for MAD HMLER: MAD score of viability in HMLER cells; for Fold HMLER: fold viability in HMLER cells
[5] = secondary screen with the 4 individual siRNAs of each pool
[6] = ratio of Fold_BPLER to Fold_HMLER
[7] = ratio of fold viability BPLER/HMLER
[8] = siRNA pool against the gene, fold viability
[9] = validation screen with individual siRNAs of each pool

O=C(O)C(=O)CBr [BRPA, 3-bromo-pyruvic acid]
sensitivity of BPLER relative to HMLER cells (viability) ([1]; increasing doses): more sensitive

CC(=O)N(O)CCCCCNC(=O)CCC(=O)N(O)CCCCCNC(=O)CCC(=O)N(O)CCCCCN [Deferoxamine]
relative viability of BPLER and HMLER cells [1]: not active

COc1ccc([C@@H]2CC(=O)c3c(O)cc(O)cc3O2)cc1O [Hesperetin]
relative viability of BPLER and HMLER cells [1]: not active

NC(N)=NOCC[C@H](N)C(=O)O [L-cavananine]
relative viability of BPLER and HMLER cells [1]: not active

COc1ccc2cc(CCC(C)=O)ccc2c1 [Nabumetone]
relative viability of BPLER and HMLER cells [1]: not active

USP39
Cherry_Score [2]: 2 | Cherry Score [2, 5]: 2 | Ratio BPLER/HMLER [3, 6]: 0.70 | Ratio BPLER/HMLER [3, 7]: 0.70 | MAD BPLER [3]: −2.13 | Fold BPLER [3]: 0.695 | MAD_HMLER ([4]; siRNA pool against the gene): −0.04 | Fold_HMLER [4, 8]: 0.99 | MAD HMLER ([4]; siRNA pool against the gene): −0.04 | Fold HMLER ([4]; siRNA pool against the gene): 0.99

XM_058073
Cherry Score [2, 9]: 3 | Ratio [3]: 0.73 | Fold_HMLER ([4]; siRNA pool): 0.75

B1: NM_174931 (nucleic acid, listed as Homo sapiens)
DNA: AATAGAGTCTGCACTAGGAAACTGGTGGGAGCCGAGGTCCGGAAGTCCGACGCTGGTCGGTGGGCGCATGCGCAGCGCGCGCTCTACGGCGCTGAACCGGGGCGAGCAGAGAGCTGTCAGATACTATAGCCATATGAAGTTGAACATGGCAGAAGAAGAGGACTATATGTCTGATTCCTTCATTAATGTCCAAGAAGATATCAGACCAGGATTGCCAATGCTAAGGCAAATCCGAGAAGCCCGTCGAAAAGAAGAAAAGCAACAGGAAGCCAATTTGAAAAACAGGCAGAAGAGTTTAAAAGAAGAAGAACAAGAAAGACGTGACATTGGGTTGAAGAATGCACTAGGCTGTGAAAACAAAGGGTTTGCCTTGCTCCAAAAGATGGGCTATAAAAGTGGTCAGGCACTTGGCAAGAGTGGGGGTGGTATTGTTGAACCAATTCCTCTCAATATCAAAACAGGGAAAAGTGGCATTGGTCATGAGGCATCATTAAAACGGAAAGCAGAGGAAAAATTGGAAAGCTACAGAAAAAAGATTCACATGAAAAACCAAGCTGAAGAAAAAGCTGCAGAACAGTTTCGAATGCGACTTAAAAATAAGCAAGATGAAATGAAGCTAGAAGGAGATCTCAGAAGAAGCCAGCGAGCCTGTCAACAACTGGATGTCCAGAAAAATATTCAGGTTCCCAGGGAAGCATGGTACTGGTTGAGGCTTGAAGAGGAGACTGAAGAAGATGAAGAAGAAAAAGAACAGGATGAAGATGAATATAAGAGTGAAGATTTAAGCGTACTGGAAAAATTACAAATATTGACTAGTTATTTAAGAGAAGAACATCTATATTGTATTTGGTGTGGAACAGCCTATGAAGATAAAGAAGACCTATCTTCAAATTGTCCAGGACCAACTTCTGCAGATCATGACTAAGATTATTCCCAATAAAGTGGAAACTTGAAAAATGTTATTACTTCCTAGGGATAGACAATTTAGCAGTTGGAAATCTCAAATTTTTTATGCCAGTAAAGAAAGGGGGACTTTATATAATGTTTTGTTCTTTTTGTACTTTAGAATATGAATGTTCATTGACTTGAAAAAAATAATGCAATGGCATTTCAGAACACAAGTATCACAGAGATGGACAGTTACAATTTATTGCTATATTGTGATACGTGAGGGGTTTAAGGACACCAACAGGTAACTTCTTATTCCCCTCTTCACTTTGGAACAAATTGAGAAATAAGAAATGGGAGTCAGAGGAA
Cherry Score [2, 9]: 1 | Ratio [3]: 0.72 | Fold_HMLER ([4]; siRNA pool): 0.65

B2: TMED3 (nucleic acid, listed as Homo sapiens)
DNA: ATCCCCTTACATCCTCCTAGGACCCGGTCGGTAGTCGTCGCCCCAGCCCGCCGGGGGCGCAGCGCCCGAGCCGCGGCCCTCGAGACGGGACCGAGAGCATCATGGGCAGCACTGTCCCGCGCTCCGCCTCCGTGCTGCTTCTGCTGCTGCTCCTGCGCCGGGCCGAGCAGCCCTGCGGGGCCGAGCTCACCTTCGAGCTGCCGGACAACGCCAAGCAGTGCTTCCACGAGGAGGTGGAGCAGGGCGTGAAGTTCTCCCTGGATTACCAGGTCATCACTGGAGGCCACTACGATGTTGACTGCTATGTAGAGGACCCCCAGGGGAACACCATCTACAGAGAAACGAAGAAGCAGTACGACAGCTTCACGTACCGGGCTGAAGTCAAGGGCGTTTATCAGTTTTGCTTCAGTAATGAGTTTTCCACCTTCTCTCACAAGACCGTCTACTTTGACTTTCAAGTGGGCGATGAGCCTCCCATTCTCCCAGACATGGGGAACAGGGTCACAGCTCTCACCCAGATGGAGTCCGCCTGCGTGACCATCCATGAGGCTCTGAAAACGGTGATTGACTCCCAGACGCATTACCGGCTGCGGGAGGCCCAGGACCGGGCCCGAGCGGAAGACCTTAATAGCCGAGTCTCTTACTGGTCTGTTGGCGAGACGATTGCCCTGTTCGTGGTCAGCTTCAGTCAGGTGCTACTGTTGAAAAGCTTCTTCACAGAAAAACGACCCATCAGCAGGGCAGTCCACTCCTAGCCCCGGCATCCTGCTCTAGGGCCCCTCATGCCCCAGGCTGGAGCAGCTCTCCTAGGTCACAGCCTGCTGGGCTGGGTCGCGTAGCCCAGGGTGGAGGCAGAACGATGCTGCTGTGGTAGCCCTTTGCCTTTCATGCCCATGCTTGATTCTTGCACCTCAGCAGCTGAAGGTCTCAGAGACCAGTAATCAGAAGGCATCCGACTGCATTAAGTGTGCAGCGCTGAAAAGACATTTACAACTAGGCCAGGGATTAGCCACTGTGGGAGGGTGGACAGGCAATGGTTCAGTGGCCTGGCTGTTGGCAGGAACTCCAAGTGCCCAGGCCTCTTGGGCAGCTTAGGGCCCTGCCTCTGTTTCATGATGCATGGGTCATTTGTCTTGGGTGTCCTATCCCATATGGAGAAGAAAGGGGCTCTAAGTTCTGGCTCTTCTTTCTTTGGGGTTCTCTGTACCTGAGGAAACCAGGCCCTGGGTGACTTTGCAGATCTGCTCACCCTCGGTGAGCAACAGTGTCAGCCATGCAAGCAGGACAGAATGGTGACTGGGTGCCCTTGGTGAGCTGTGTATTTCCTAGGAGGTAGAAAACTGTGGGAAACTGTGGCTAATAAAAACTAAGTGTGAGCGTCCTGGAGAAAAAAAAAAAAAAAAAAAAAAAAAAAAAAAAAAAAAAAAAAAAAAAA
Cherry_Score [2]: 2 | Cherry Score [2, 5]: 2 | Ratio BPLER/HMLER [3, 6]: 0.68 | Ratio BPLER/HMLER [3, 7]: 0.68 | MAD BPLER [3]: −2.93 | Fold BPLER [3]: 0.537 | MAD_HMLER ([4]; siRNA pool against the gene): −1.28 | Fold_HMLER [4, 8]: 0.80 | MAD HMLER ([4]; siRNA pool against the gene): −1.28 | Fold HMLER ([4]; siRNA pool against the gene): 0.80

B3: TMEM14B (nucleic acid, listed as Homo sapiens)
DNA: TTTCTCCCCGCCCTGCCGCGGCCCCGGGGCGCAGCGCGCACGCAATCGCGTTTCCGGAGAGACCTGGCTGCTGTGTCCCGCGGCTTGCGCTCCGTAGTGGACTCCGCGGGCCTTCGGCAGATGCAGGCCTGGGGTAGTCTCCTTTCTGGACTGAGAAGAGAAGAATGGAGAAGCCCCTCTTCCCATTAGTGCCTTTGCATTGGTTTGGCTTTGGCTACACAGCACTGGTTGTTTCTGGTGGGATCGTTGGCTATGTAAAAACAGGCAGCGTGCCGTCCCTGGCTGCAGGGCTGCTCTTCGGCAGTCTAGCCGGCCTGGGTGCTTACCAGCTGTATCAGGATCCAAGGAACGTTTGGGGTTTCCTAGCCGCTACATCTGTTACTTTTGTTGGTGTTATGGGAATGAGATCCTACTACTATGGAAAATTCATGCCTGTAGGTTTAATTGCAGGTGCCAGTTTGCTGATGGCCGCCAAAGTTGGAGTTCGTATGTTGATGACATCTGATTAGCAGAAGTCATGTTCCAGCTTGGACTCATGAAGGATTAAAAATCTGCATCTTCCACTATTTTCAATGTATTAAGAGAAATAAGTGCAGCATTTTTGCATCTGACATTTTACCTAAAAAAAAAAAGACACCAAATTTGGCGGAGGGGTGGAAAATCAGTTGTTACCATTATAACCCTACAGAGGTGGTGAGCATGTAACATGAGCTTATTGAGACCATCATAGAGATCGATTCTTGTATATTGATTTTATCTCTTTCTGTATCTATAGGTAAATCTCAAGGGTAAAATGTTAGGTGTTGACATTGAGAACCCTGAAACCCCATTCCCTGCTCAGAGGAACAGTGTGAAAAAAAATCTCTTGAGAGATTTAGAATATCTTTTCTTTTGCTCATCTTAGACCACAGACTGACTTTGAAATTATGTTAAGTGAAATATCAATGAAAATAAAGTTTACTATAAATAATAAAAAAAAAAAAAAAAAA
Cherry_Score [2]: 1 | Cherry Score [2, 5]: 1 | Ratio BPLER/HMLER [3, 6]: 0.71 | Ratio BPLER/HMLER [3, 7]: 0.71 | MAD BPLER [3]: −1.99 | Fold BPLER [3]: 0.636 | MAD_HMLER ([4]; siRNA pool against the gene): −0.56 | Fold_HMLER [4, 8]: 0.90 | MAD HMLER ([4]; siRNA pool against the gene): −0.56 | Fold HMLER ([4]; siRNA pool against the gene): 0.90

B4: NM_194324 (nucleic acid, listed as Homo sapiens)
DNA: AGCACTGCAGGGCTCTGGGCGGGAAGGCTAACCTGGTGCGGAGCCAGCCTGGGTCTCAGCCCCGCGTACGGCCTTTCACGAGTCTTCAAGCCTTCAGGCTTTCTTCTAGTCAAGATGAGTGATAAACCAGACTTGTCGGAAGTGGAGAAGTTTGACAGGTCAAAACTGAAGAAAACTAATACTGAAGAAAAAAATACTCTTCCCTCAAAGGAAACTATCCAGCAGGAGAAAGAGTGTGTTCAAACATCATAAAATGGGGATCTCCTCCAAAGAGCAGATTTCAGCATTGCCTGACAGTCTTGGTTTTAGGCTTGTTTTTTTGTAAACCTGTGTGTTTGTAGAGATTTCAGACATCTTCTGATTTCTTCTCACCTATATTCCCTGGTTAAGAGGTCAGGGGTAGTGAATGTTTCCTTAAGTTCCTTTTTAAACTTCCCATTGGTATGTAAATTCCAAATGGCAGATGCTGTCAATAACCTTGCCATGGATGACCTTTGTGTAGGTAGTCCTTGCACCTCATGCAGGATAAGCCAATTTTAACTTTCTACAATGGGTGCCTCAATAGTTTCATAATCTTCATGAAGTTGCATCCTTTGGCAGCTTCTTACAGTTTATTTTCACTTCCAATGTAGCAATAAAATAATAAATATAATCGTTGTTGTCTGAAAAAAAAAAAAAAAAAA
Cherry Score [2, 9]: 1 | Ratio [3]: 0.74 | Fold_HMLER ([4]; siRNA pool): 0.87
